Data reported in patent US20030148264A1, “Phage displayed PDZ domain ligands” (GENENTECH, INC., priority 2001, published 2003).

Assays:
ERBIN PDZ domain [1] = target: T1, ERBIN PDZ domain (Homo sapiens, UniProt Q96RT1); assay: Co-localization of ERBIN PDZ and δ-catenin in transfected HEK 293 cells; assay type: cell-based; set-up: expressed in transfected cells; host or cells: HEK 293; settings: co-transfected HEK 293 cells; FIG. 7
Procedure: HEK 293 cells were grown to 70% confluence on collagen IV coated coverslips and then transfected with 1.4 μg of GST-ERBIN PDZ in pcDNA 3.1/V5/His and 1.1 μg of the indicated EGFP construct. 24 to 48 hours post-transfection, the cells were washed in PBS, fixed for 30 minutes in 2.5% formaldehyde, permeabilized with 0.25% Triton X-100 in PBS, and blocked with 5% donkey serum in PBS. The ERBIN PDZ domain was visualized by staining with monoclonal anti-V5 antibody (Invitrogen) and Cy3-conjugated secondary antibodies (Jackson Immunolabs) whereas GFP fusions were visualized directly. Images were taken on a standard fluorescence microscope using a 40× objective and digital CCD camera and SPOT imaging software (Diagnostic Instruments, Inc.; Sterling Heights, Mich.).
The ERBIN PDZ domain was co-transfected into HEK 293 E cells with EGFP, human δ-catenin or human δ-catenin missing the six C-terminal amino acids (FIG. 7).
Target sequence in this assay (Q96RT1 1314-1412): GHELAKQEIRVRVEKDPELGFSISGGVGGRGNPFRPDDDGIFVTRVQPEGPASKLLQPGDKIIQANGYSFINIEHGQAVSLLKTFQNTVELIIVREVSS

PDZ 2 of MAGI-3 = target: T2, PDZ 2 of MAGI-3 (Homo sapiens, UniProt Q5TCQ9); assay: GST-PDZ co-precipitation of proteins from transfected HEK 293 cell extracts; assay type: binding; settings: extracts from transfected HEK 293 cells; FIG. 6
T2 construct: made in house; host or cells: E. coli
T2 sequence (Q5TCQ9 584-707 isoform Q5TCQ9-2): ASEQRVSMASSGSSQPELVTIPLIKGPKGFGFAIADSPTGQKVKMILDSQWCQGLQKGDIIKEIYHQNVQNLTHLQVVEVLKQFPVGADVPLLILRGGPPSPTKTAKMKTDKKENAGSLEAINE
Procedure: (§1) HEK 293 (293) cells grown in high glucose Dulbeco's Modified Eagle Medium (DMEM), 10% fetal calf serum, 1× non-essential amino acid supplement, 1×L-glutamine supplement, 10 mM HEPES (pH 7.4) and penicillin/streptomycin (all from Life Technologies) to ˜80% confluence were transfected with 2 μg DNA/35 mm diameter well (for example, DNAs encoding the sequences described in EXAMPLE 5.0) using Fugene reagent (Roche Biochemical). 24 hours post-transfection, cells were washed once with PBS and then scraped into 1 ml/well of 20 mM Tris (pH 7.5), 1% Triton X-100, 200 mM NaCl, 1 mM dithiothreitol, and protease inhibitor cocktail with EDTA (Roche Biochemical, catalog #1836145) and homogenized gently with three to five strokes in a dounce (Wheaton) using a loose glass pestle. Extracts were centrifuged at 12,000 rpm in a tabletop centrifuge at 4° C. for 10 minutes; the supernatant was combined with an equal volume of homogenization buffer without NaCl to achieve a final salt concentration of 100 mM and frozen at −70° C. until use. […] Binding of 293 cell-expressed proteins was detected by immunoblot analysis using antibodies against GFP (Clontech) and Her 2 (Santa Cruz Biotechnology).
(§2) Amino acids 1217-1371 of ERBIN and 584-707 corresponding to PDZ 2 of MAGI-3 (Sidhu et al., 2000); were expressed in E. coli as GST fusions. […] Equal volumes of extract and depleted extract (sup.) were analyzed.

ERBIN PDZ domain [2] = target: T1, ERBIN PDZ domain; assay: as above; assay type: binding; set-up: made in house; host or cells: E. coli; settings: extracts from transfected HEK 293 cells; FIG. 6
Procedure: as §1, §2
Target sequence in this assay (Q96RT1 1258-1412): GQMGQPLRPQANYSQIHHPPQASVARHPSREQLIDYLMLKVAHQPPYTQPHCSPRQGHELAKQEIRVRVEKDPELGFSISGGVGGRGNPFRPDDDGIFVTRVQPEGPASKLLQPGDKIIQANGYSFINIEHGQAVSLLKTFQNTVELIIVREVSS

B1: δ-catenin: member of the Armadillo family, expressed as EGFP fusion in HEK 293 cells; candidate ERBIN PDZ ligand (protein)
chain: MFARKPPGAAPLGAMPVPDQPSSASEKTSSLSPGLNTSNGDGSETETTSAILASVKEQELQFERLTRELEAERQIVASQLERCKLGSETGSMSSMSSAEEQFQWQSQDGQKDIEDELTTGLELVDSCIRSLQESGILDPQDYSTGERPSLLSQSALQLNSKPEGSFQYPASYHSNQTLALGETTPSQLPARGTQARATGQSFSQGTTSRAGHLAGPEPAPPPPPPPREPFAPSLGSAFHLPDAPPAAAAAALYYSSSTLPAPPRGGSPLAAPQGGSPTKLQRGGSAPEGATYAAPRGSSPKQSPSRLAKSYSTSSPINIVVSSAGLSPIRVTSPPTVQSTISSSPIHQLSSTIGTYATLSPTKRLVHASEQYSKHSQELYATATLQRPGSLAAGSRASYSSQHGHLGPELRALQSPEHHIDPIYEDRVYQKPPMRSLSQSQGDPLPPAHTGTYRTSTAPSSPGVDSVPLQRTGSQHGPQNAAAATFQRASYAAGPASNYADPYRQLQYCPSVESPYSKSGPALPPEGTLARSPSIDSIQKDPREFGWRDPELPEVIQMLQHQFPSVQSNAAAYLQHLCFGDNKIKAEIRRQGGIQLLVDLLDHRMTEVHRSACGALRNLVYGKANDDNKIALKNCGGIPALVRLLRKTTDLEIRELVTGVLWNLSSCDALKMPIIQDALAVLTNAVIIPHSGWENSPLQDDRKIQLHSSQVLRNATGCLRNVSSAGEEARRRMRECDGLTDALLYVIQSALGSSEIDSKTVENCVCILRNLSYRLAAETSQGQHMGTDELDGLLCGEANGKDAESSGCWGKKKKKKKSQDQWDGVGPLPDCAEPPKGIQMLWHPSIVKPYLTLLSECSNPDTLEGAAGALQNLAAGSWKWSVYIRAAVRKEKGLPILVELLRIDNDRVVCAVATALRNMALDVRNKELIGKYAMRDLVHRLPGGNNSNNTASKAMSDDTVTAVCCTLHEVITKNMENAKALRDAGGIEKLVGISKSKGDKHSPKVVKAASQVLNSMWQYRDLRSLYKKDGWSQYHFVASSSTIERDRQRPYSSSRTPSISPVRVSPNNRSASAPASPREMISLKERKTDYECTGSNATYHGAKGEHTSRKDAMTAQNTGISTLYRNSYGAPAEDIKHNQVSAQPVPQEPSRKDYETYQPFQNSTRNYDESFFEDQVHHRPPASEYTMHLGLKSTGNYVDFYSAARPYSELNYETSHYPASPDSWV
modifications: left off: large carriers
notes: member of the Armadillo family, expressed as EGFP fusion in HEK 293 cells; candidate ERBIN PDZ ligand
ERBIN PDZ domain [1]
  co-localization with / recruitment of ERBIN PDZ domain: complete recruitment of ERBIN PDZ to the cell junction
PDZ 2 of MAGI-3
  binding to / precipitation by GST-MAGI-3 PDZ 2: not to PDZ 2 of MAGI-3
ERBIN PDZ domain [2]
  binding to / precipitation by GST-ERBIN PDZ: binds strongly
